Biological target: SARS-CoV-2RBD-hFc蛋白 (SARS-CoV-2; human)

B1: R14纳米抗体 (alpaca-derived nanobody R14, with C-terminal hexa-His tag) (VHH)
VHH: QVQLQESGGGLVQPGGSLRLSCAVSGFTLDYYAIGWFRQAPGKEREGVSCISSSDGSTSYADSVKGRFTISRDNAKNTVYLQMNSLKPEDTALYYCAATPATYYSGRYYYQCPAGGMDYWGQGTQVTVSS
Kd: < 0.1 nM
